Measurements from US11098105 (Zymeworks, dated 2021).

T1: FcγRIIaH (UniProt P12318 36-218)
T1 construct: also called 2aH; 2ah
T1 sequence (looked up): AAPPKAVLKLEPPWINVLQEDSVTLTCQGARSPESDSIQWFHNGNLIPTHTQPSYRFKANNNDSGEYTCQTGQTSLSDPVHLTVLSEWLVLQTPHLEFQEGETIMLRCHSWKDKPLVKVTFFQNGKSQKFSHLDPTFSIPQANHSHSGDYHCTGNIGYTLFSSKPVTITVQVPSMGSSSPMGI

T2: FcγRIIaR (UniProt P12318 36-218)
T2 construct: also called 2aR; 2ar
T2 sequence (looked up): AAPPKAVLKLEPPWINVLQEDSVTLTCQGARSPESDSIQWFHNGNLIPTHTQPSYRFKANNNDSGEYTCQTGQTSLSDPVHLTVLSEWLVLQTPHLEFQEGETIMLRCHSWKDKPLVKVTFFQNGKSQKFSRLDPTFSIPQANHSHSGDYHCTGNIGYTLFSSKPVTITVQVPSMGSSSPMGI

T3: FcγRIIb (UniProt P31994 46-217)
T3 construct: also called 2b; CD32b
T3 sequence (looked up): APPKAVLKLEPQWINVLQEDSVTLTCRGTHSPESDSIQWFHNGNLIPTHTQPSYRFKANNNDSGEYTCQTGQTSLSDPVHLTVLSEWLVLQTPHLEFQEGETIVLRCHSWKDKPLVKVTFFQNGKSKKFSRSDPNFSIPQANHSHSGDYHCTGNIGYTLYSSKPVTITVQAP


Assays:
[1] = target: CD16a(158V/V) on NK92 effector cells (UniProt P08637 17-254, limits assumed); experiment: cell-based or functional assay
[2] = target: Human C1q (human, UniProt P02745 23-245; P02746 28-253; P02747 29-245); experiment: cell-based or functional assay
[3] = target: T1, FcγRIIaH; experiment: SPR, antibody captured by goat anti-IgG, FcγR injected
[4] = target: T2, FcγRIIaR; experiment: as above
[5] = target: T3, FcγRIIb; experiment: as above
[6] = target: T4, FcγRIIIaF (UniProt P08637 17-208); experiment: as above
T4 construct: also called 3aF; 3af

Chain of Human C1q (P02745 23-245 limits assumed, chain 1 of 3): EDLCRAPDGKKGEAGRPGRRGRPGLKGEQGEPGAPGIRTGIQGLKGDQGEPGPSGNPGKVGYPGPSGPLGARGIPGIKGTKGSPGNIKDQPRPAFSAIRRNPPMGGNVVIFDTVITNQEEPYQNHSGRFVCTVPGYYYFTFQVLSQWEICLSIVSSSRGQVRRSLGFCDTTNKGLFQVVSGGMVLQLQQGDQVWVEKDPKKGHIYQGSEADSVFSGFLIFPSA
Chain of Human C1q (P02746 28-253 limits assumed, chain 2 of 3): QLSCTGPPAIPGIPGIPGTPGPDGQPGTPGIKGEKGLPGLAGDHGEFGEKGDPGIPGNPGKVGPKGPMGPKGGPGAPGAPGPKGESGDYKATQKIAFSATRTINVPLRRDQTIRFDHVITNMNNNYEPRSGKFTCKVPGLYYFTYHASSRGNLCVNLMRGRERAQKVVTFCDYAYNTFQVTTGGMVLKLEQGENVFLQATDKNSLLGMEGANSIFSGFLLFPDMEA
Chain of Human C1q (P02747 29-245 limits assumed, chain 3 of 3): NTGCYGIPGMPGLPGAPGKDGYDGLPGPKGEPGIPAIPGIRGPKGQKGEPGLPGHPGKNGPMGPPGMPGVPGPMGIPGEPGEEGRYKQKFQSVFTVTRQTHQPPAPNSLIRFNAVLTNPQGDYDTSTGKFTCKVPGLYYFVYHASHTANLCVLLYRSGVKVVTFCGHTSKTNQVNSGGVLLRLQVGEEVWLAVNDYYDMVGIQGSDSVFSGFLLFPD

Row | Binder | ADCC EC50 [nM], Daudi cells, NK92/CD16a(158V/V) effector cells [1] [nM] | ADCC Maximum Lysis, Daudi cells, NK92/CD16a(158V/V) effector cells [1] [% cell lysis] | CDC EC50 [nM], Daudi cells, 10% normal human serum [2] [nM] | CDC Maximum Lysis, Daudi cells, 10% normal human serum [2] [% cell lysis] | binding result [3] | binding result [4] | binding result [5] | binding result [6]
1 | AAC10, rituximab-based asymmetric antibody construct (antibody, human IgG1, kappa) heavy 1: QVQLQQPGAELVKPGASVKMSCKASGYTFTSYNMHWVKQTPGRGLEWIGAIYPGNGDTSYNQKFKGKATLTADKSSSTAYMQLSSLTSEDSAVYYCARSTYYGGDWYFNVWGAGTTVTVSAASTKGPSVFPLAPSSKSTSGGTAALGCLVKDYFPEPVTVSWNSGALTSGVHTFPAVLQSSGLYSLSSVVTVPSSSLGTQTYICNVNHKPSNTKVDKKVEPKSCDKTHTCPPCPAPEDEGGPSVFLFPPKPKDTLMISRTPEVTCVVVSVSHEDPEVKFNWYVDGVEVHNAKTKPREEQYNSTYRVVSVLTVLHQDWLNGKEYKCKVSNKALPAPIEKTISKAKGQPREPQVYVYPPSRDELTKNQVSLTCLVKGFYPSDIAVEWESNGQPENNYKTTPPVLDSDGSFALVSKLTVDKSRWQQGNVFSCSVMHEALHNHYTQKSLSLSPGK heavy 2: QVQLQQPGAELVKPGASVKMSCKASGYTFTSYNMHWVKQTPGRGLEWIGAIYPGNGDTSYNQKFKGKATLTADKSSSTAYMQLSSLTSEDSAVYYCARSTYYGGDWYFNVWGAGTTVTVSAASTKGPSVFPLAPSSKSTSGGTAALGCLVKDYFPEPVTVSWNSGALTSGVHTFPAVLQSSGLYSLSSVVTVPSSSLGTQTYICNVNHKPSNTKVDKKVEPKSCDKTHTCPPCPAPKRRGGPSVFLFPPKPKDTLMISRTPEVTCVVVSVSHEDPEVKFNWYVDGVEVHNAKTKPREEQYNSTYRVVSVLTVLHQDWLNGKEYKCKVSNKALPAPIEKTISKAKGQPREPQVYVLPPSRDELTKNQVSLLCLVKGFYPSDIAVEWESNGQPENNYLTWPPVLDSDGSFFLYSKLTVDKSRWQQGNVFSCSVMHEALHNHYTQKSLSLSPGK light: QIVLSQSPAILSASPGEKVTMTCRASSSVSYIHWFQQKPGSSPKPWIYATSNLASGVPVRFSGSGSGTSYSLTISRVEAEDAATYYCQQWTSNPPTFGGGTKLEIKRTVAAPSVFIFPPSDEQLKSGTASVVCLLNNFYPREAKVQWKVDNALQSGNSQESVTEQDSKDSTYSLSSTLTLSKADYEKHKVYACEVTHQGLSSPVTKSFNRGEC | 7.4 | 45 | 82.8 | 79 | no binding | no binding | no binding | no binding
2 | AAC15, rituximab-based asymmetric antibody construct (antibody, human IgG1, kappa) heavy 1: QVQLQQPGAELVKPGASVKMSCKASGYTFTSYNMHWVKQTPGRGLEWIGAIYPGNGDTSYNQKFKGKATLTADKSSSTAYMQLSSLTSEDSAVYYCARSTYYGGDWYFNVWGAGTTVTVSAASTKGPSVFPLAPSSKSTSGGTAALGCLVKDYFPEPVTVSWNSGALTSGVHTFPAVLQSSGLYSLSSVVTVPSSSLGTQTYICNVNHKPSNTKVDKKVEPKSCDKTHTCPPCPAPEDEGGPSVFLFPPKPKDTLMISRTPEVTCVVVSVSHKDPEVKFNWYVDGVEVHNAKTKPREEQYNSTYRVVSVLTVLHQDWLNGKEYKCEVSNKALPAPIKKTISKAKGQPREPQVYVYPPSRDELTKNQVSLTCLVKGFYPSDIAVEWESNGQPENNYKTTPPVLDSDGSFALVSKLTVDKSRWQQGNVFSCSVMHEALHNHYTQKSLSLSPGK heavy 2: QVQLQQPGAELVKPGASVKMSCKASGYTFTSYNMHWVKQTPGRGLEWIGAIYPGNGDTSYNQKFKGKATLTADKSSSTAYMQLSSLTSEDSAVYYCARSTYYGGDWYFNVWGAGTTVTVSAASTKGPSVFPLAPSSKSTSGGTAALGCLVKDYFPEPVTVSWNSGALTSGVHTFPAVLQSSGLYSLSSVVTVPSSSLGTQTYICNVNHKPSNTKVDKKVEPKSCDKTHTCPPCPAPKRRGGPSVFLFPPKPKDTLMISRTPEVTCVVVSVSHKDPEVKFNWYVDGVEVHNAKTKPREEQYNSTYRVVSVLTVLHQDWLNGKEYKCEVSNKALPAPIKKTISKAKGQPREPQVYVLPPSRDELTKNQVSLLCLVKGFYPSDIAVEWESNGQPENNYLTWPPVLDSDGSFFLYSKLTVDKSRWQQGNVFSCSVMHEALHNHYTQKSLSLSPGK light: QIVLSQSPAILSASPGEKVTMTCRASSSVSYIHWFQQKPGSSPKPWIYATSNLASGVPVRFSGSGSGTSYSLTISRVEAEDAATYYCQQWTSNPPTFGGGTKLEIKRTVAAPSVFIFPPSDEQLKSGTASVVCLLNNFYPREAKVQWKVDNALQSGNSQESVTEQDSKDSTYSLSSTLTLSKADYEKHKVYACEVTHQGLSSPVTKSFNRGEC | – | – | ~55.9 | 43 | no binding | no binding | no binding | no binding
3 | AAC13, rituximab-based asymmetric antibody construct (antibody, human IgG1, kappa) heavy 1: QVQLQQPGAELVKPGASVKMSCKASGYTFTSYNMHWVKQTPGRGLEWIGAIYPGNGDTSYNQKFKGKATLTADKSSSTAYMQLSSLTSEDSAVYYCARSTYYGGDWYFNVWGAGTTVTVSAASTKGPSVFPLAPSSKSTSGGTAALGCLVKDYFPEPVTVSWNSGALTSGVHTFPAVLQSSGLYSLSSVVTVPSSSLGTQTYICNVNHKPSNTKVDKKVEPKSCDKTHTCPPCPAPEDEGGPSVFLFPPKPKDTLMISRTPEVTCVVVDVSHEDPEVKFNWYVDGVEVHNAKTKPREEQYNSTYRVVSVLTVLHQDWLNGKEYKCKVSNKALWAPIEKTISKAKGQPREPQVYVYPPSRDELTKNQVSLTCLVKGFYPSDIAVEWESNGQPENNYKTTPPVLDSDGSFALVSKLTVDKSRWQQGNVFSCSVMHEALHNHYTQKSLSLSPGK heavy 2: QVQLQQPGAELVKPGASVKMSCKASGYTFTSYNMHWVKQTPGRGLEWIGAIYPGNGDTSYNQKFKGKATLTADKSSSTAYMQLSSLTSEDSAVYYCARSTYYGGDWYFNVWGAGTTVTVSAASTKGPSVFPLAPSSKSTSGGTAALGCLVKDYFPEPVTVSWNSGALTSGVHTFPAVLQSSGLYSLSSVVTVPSSSLGTQTYICNVNHKPSNTKVDKKVEPKSCDKTHTCPPCPAPKRRGGPSVFLFPPKPKDTLMISRTPEVTCVVVDVSHEDPEVKFNWYVDGVEVHNAKTKPREEQYNSTYRVVSVLTVLHQDWLNGKEYKCKVSNKALWAPIEKTISKAKGQPREPQVYVLPPSRDELTKNQVSLLCLVKGFYPSDIAVEWESNGQPENNYLTWPPVLDSDGSFFLYSKLTVDKSRWQQGNVFSCSVMHEALHNHYTQKSLSLSPGK light: QIVLSQSPAILSASPGEKVTMTCRASSSVSYIHWFQQKPGSSPKPWIYATSNLASGVPVRFSGSGSGTSYSLTISRVEAEDAATYYCQQWTSNPPTFGGGTKLEIKRTVAAPSVFIFPPSDEQLKSGTASVVCLLNNFYPREAKVQWKVDNALQSGNSQESVTEQDSKDSTYSLSSTLTLSKADYEKHKVYACEVTHQGLSSPVTKSFNRGEC | – | – | – | – | no binding | no binding | no binding | no binding
4 | AAC14, rituximab-based asymmetric antibody construct (antibody, human IgG1, kappa) heavy 1: QVQLQQPGAELVKPGASVKMSCKASGYTFTSYNMHWVKQTPGRGLEWIGAIYPGNGDTSYNQKFKGKATLTADKSSSTAYMQLSSLTSEDSAVYYCARSTYYGGDWYFNVWGAGTTVTVSAASTKGPSVFPLAPSSKSTSGGTAALGCLVKDYFPEPVTVSWNSGALTSGVHTFPAVLQSSGLYSLSSVVTVPSSSLGTQTYICNVNHKPSNTKVDKKVEPKSCDKTHTCPPCPAPEDEGGPSVFLFPPKPKDTLMISRTPEVTCVVVSVSHKDPEVKFNWYVDGVEVHNAKTKPREEQYNSTYRVVSVLTVLHQDWLNGKEYKCAVSNKALPAPIEKTISKAKGQPREPQVYVYPPSRDELTKNQVSLTCLVKGFYPSDIAVEWESNGQPENNYKTTPPVLDSDGSFALVSKLTVDKSRWQQGNVFSCSVMHEALHNHYTQKSLSLSPGK heavy 2: QVQLQQPGAELVKPGASVKMSCKASGYTFTSYNMHWVKQTPGRGLEWIGAIYPGNGDTSYNQKFKGKATLTADKSSSTAYMQLSSLTSEDSAVYYCARSTYYGGDWYFNVWGAGTTVTVSAASTKGPSVFPLAPSSKSTSGGTAALGCLVKDYFPEPVTVSWNSGALTSGVHTFPAVLQSSGLYSLSSVVTVPSSSLGTQTYICNVNHKPSNTKVDKKVEPKSCDKTHTCPPCPAPKRRGGPSVFLFPPKPKDTLMISRTPEVTCVVVSVSHKDPEVKFNWYVDGVEVHNAKTKPREEQYNSTYRVVSVLTVLHQDWLNGKEYKCAVSNKALPAPIEKTISKAKGQPREPQVYVLPPSRDELTKNQVSLLCLVKGFYPSDIAVEWESNGQPENNYLTWPPVLDSDGSFFLYSKLTVDKSRWQQGNVFSCSVMHEALHNHYTQKSLSLSPGK light: QIVLSQSPAILSASPGEKVTMTCRASSSVSYIHWFQQKPGSSPKPWIYATSNLASGVPVRFSGSGSGTSYSLTISRVEAEDAATYYCQQWTSNPPTFGGGTKLEIKRTVAAPSVFIFPPSDEQLKSGTASVVCLLNNFYPREAKVQWKVDNALQSGNSQESVTEQDSKDSTYSLSSTLTLSKADYEKHKVYACEVTHQGLSSPVTKSFNRGEC | – | – | 69.7 | 72 | no binding | no binding | no binding | no binding
